This experiment addresses T1, Recombinant human IgG1 Fc (R&D systems) (human, UniProt P01857-1 100-330 = IgG part).
T1 construct: domain: Fc; Negative control surface in the Biacore experiment; also called hIgG1-Fc
The experiment in a line: SPR (Biacore T200).

The values below come from US20140314744A1 (NEOTOPE BIOSCIENCES, published 2014).

B1: Recombinant human laminin-α4 (R&D systems) (ligand, UniProt Q16363-2 826-1816, looked up)
chain: QVSMMFDGQSAVEVHSRTSMDDLKAFTSLSLYMKPPVKRPELTETADQFILYLGSKNAKKEYMGLAIKNDNLVYVYNLGTKDVEIPLDSKPVSSWPAYFSIVKIERVGKHGKVFLTVPSLSSTAEEKFIKKGEFSGDDSLLDLDPEDTVFYVGGVPSNFKLPTSLNLPGFVGCLELATLNNDVISLYNFKHIYNMDPSTSVPCARDKLAFTQSRAASYFFDGSGYAVVRDITRRGKFGQVTRFDIEVRTPADNGLILLMVNGSMFFRLEMRNGYLHVFYDFGFSGGPVHLEDTLKKAQINDAKYHEISIIYHNDKKMILVVDRRHVKSMDNEKMKIPFTDIYIGGAPPEILQSRALRAHLPLDINFRGCMKGFQFQKKDFNLLEQTETLGVGYGCPEDSLISRRAYFNGQSFIASIQKISFFDGFEGGFNFRTLQPNGLLFYYASGSDVFSISLDNGTVIMDVKGIKVQSVDKQYNDGLSHFVISSVSPTRYELIVDKSRVGSKNPTKGKIEQTQASEKKFYFGGSPISAQYANFTGCISNAYFTRVDRDVEVEDFQRYTEKVHTSLYECPIESSPLFLLHKKGKNLSKPKASQNKKGGKSKDAPSWDPVALKLPERNTPRNSHCHLSNSPRAIEHAYQYGGTANSRQEFEHLKGDFGAKSQFSIRLRTRSSHGMIFYVSDQEENDFMTLFLAHGRLVYMFNVGHKKLKIRSQEKYNDGLWHDVIFIRERSSGRLVIDGLRVLEESLPPTEATWKIKGPIYLGGVAPGKAVKNVQINSIYSFSGCLSNLQLNGASITSASQTFSVTPCFEGPMETGTYFSTEGGYVVLDESFNIGLKFEIAFEVRPRSSSGTLVHGHSVNGEYLNVHMKNGQVIVKVNNGIRDFSTSVTPKQSLCDGRWHRITVIRDSNVVQLDVDSEVNHVVGPLNPKPIDHREPVFVGGVPESLLTPRLAPSKPFTGCIRHFVIDGHPVSFSKAALVSGAVSINSCPAA
notes: also called laminin 4A chain; laminin A4 (α4) chain
Take B1: the binding result is “no binding (tested: 5-175 nM)”.
